Data on 10 molecules can be found in US20170233472A1 (MacroGenics, published 2017).

The target of this assay is T1, His-tagged soluble human ROR1 (shROR1-His) (human, UniProt Q01973 30-406).
T1 construct: also called ROR1 protein; immobilized ROR1; not shown: His-Tag
The experiment in a line: SPR (Biacore), diabody captured via anti-E/K-coil, shROR1-His as analyte. As for the experimental part: The binding kinetics of DART-1 to DART-6, DART-10 to DART-17, DART-20 to DART-33 was investigated using Biacore analysis in which ROR1 protein was passed over immobilized diabodies. Briefly, each diabody construct was captured on immobilized anti-E/K-coil surface and was incubated with shROR1-His at 25 and 100 nM, and the kinetics of binding were determined via Biacore analysis.
In general terms: Surface plasmon resonance follows binding to a sensor surface in real time, without labels.

T1 sequence (Q01973 30-406): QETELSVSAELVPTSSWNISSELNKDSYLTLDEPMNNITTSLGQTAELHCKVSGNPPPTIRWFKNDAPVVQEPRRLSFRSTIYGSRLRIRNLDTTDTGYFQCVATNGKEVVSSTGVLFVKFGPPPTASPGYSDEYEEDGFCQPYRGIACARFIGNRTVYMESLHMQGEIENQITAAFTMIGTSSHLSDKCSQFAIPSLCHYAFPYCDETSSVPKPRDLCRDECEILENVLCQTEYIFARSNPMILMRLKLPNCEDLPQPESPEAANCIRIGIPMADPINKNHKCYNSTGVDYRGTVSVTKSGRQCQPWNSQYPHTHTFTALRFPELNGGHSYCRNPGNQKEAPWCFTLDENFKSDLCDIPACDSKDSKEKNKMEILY

B1: DART-6 (bispecific antibody)
chain 1: QLVLTQSPSASASLGSSVKLTCTLSSGHKTDTIDWYQQQPGKAPRYLMKLEGSGSYNKGSGVPDRFGSGISSGADRYLTISSLQSEDEADYYCGTDYPGNYLFGGGTQLTVLGGGGSGGGGEVQLVESGGGLVQPGGSLRLSCAASGFTFSTYAMNWVRQAPGKGLEWVGRIRSKYNNYATYYADSVKGRFTISRDDSKNSLYLQMNSLKTEDTAVYYCVRHGNFGNSYVSWFAYWGQGTLVTVSSGGCGGGKVAALKEKVAALKEKVAALKEKVAALKE
chain 2: QAVVTQEPSLTVSPGGTVTLTCRSSTGAVTTSNYANWVQQKPGQAPRGLIGGTNKRAPWTPARFSGSLLGGKAALTITGAQAEDEADYYCALWYSNLWVFGGGTKLTVLGGGGSGGGGQEQLVESGGGLVQPGGSLRLSCAASGFTFSDYYMSWVRQAPGKGLEWVATIYPSSGKTYYADSVKGRFTISSDNAKNSLYLQMNSLRAEDTAVYYCARDSYADDAALFDIWGQGTTVTVSSGGCGGGEVAALEKEVAALEKEVAALEKEVAALEK
notes: ROR1×CD3 two chain diabody; VL(6): S66I; VH: parental
Broadly, the Kd is the free concentration of one partner at which half of the binding sites on the other are occupied at equilibrium, for simple one-to-one binding. Read a high Kd as weaker binding. The molecule B1 gave a Kd of 5.7 nM.

B2: DART-11 (bispecific antibody)
chain 1: QLVLTQSPSASASLGSSVKLTCTLSSGHKTDTIDWYQQQPGKAPRYLMKLEGSGSYNKGSGVPDRFGSGSSSGADWYLTISSLQSEDEADYYCGTDNPGNYLFGGGTQLTVLGGGGSGGGGEVQLVESGGGLVQPGGSLRLSCAASGFTFSTYAMNWVRQAPGKGLEWVGRIRSKYNNYATYYADSVKGRFTISRDDSKNSLYLQMNSLKTEDTAVYYCVRHGNFGNSYVSWFAYWGQGTLVTVSSGGCGGGKVAALKEKVAALKEKVAALKEKVAALKE
chain 2: QAVVTQEPSLTVSPGGTVTLTCRSSTGAVTTSNYANWVQQKPGQAPRGLIGGTNKRAPWTPARFSGSLLGGKAALTITGAQAEDEADYYCALWYSNLWVFGGGTKLTVLGGGGSGGGGQEQLVESGGGLVQPGGSLRLSCAASGFTFSDYYMSWVRQAPGKGLEWVATIYPSSGKTYYADSVKGRFTISSDNAKNSLYLQMNSLRAEDTAVYYCARDSYADDAALFDIWGQGTTVTVSSGGCGGGEVAALEKEVAALEKEVAALEKEVAALEK
notes: ROR1×CD3 two chain diabody; VL(11): R71W/Y92N; VH: parental
Consider B2, for which the Kd was 1.2 nM.

B3: DART-17 (bispecific antibody)
chain 1: QLVLTQSPSASASLGSSVKLTCTLSSGHKTDTIDWYQQQPGKAPRYLMKLEGSGSYNKGSGVPDRFGSGSSSGADRYLTISSLQSEDEADYYCGTDYPGNYLFGGGTQLTVLGGGGSGGGGEVQLVESGGGLVQPGGSLRLSCAASGFTFSTYAMNWVRQAPGKGLEWVGRIRSKYNNYATYYADSVKGRFTISRDDSKNSLYLQMNSLKTEDTAVYYCVRHGNFGNSYVSWFAYWGQGTLVTVSSGGCGGGKVAALKEKVAALKEKVAALKEKVAALKE
chain 2: QAVVTQEPSLTVSPGGTVTLTCRSSTGAVTTSNYANWVQQKPGQAPRGLIGGTNKRAPWTPARFSGSLLGGKAALTITGAQAEDEADYYCALWYSNLWVFGGGTKLTVLGGGGSGGGGQEQLVESGGGLVQPGGSLRLSCAASGFTFSDYYMSWVRQAPGKGLEWVATIYPSSGKTYYADSVKGRFTISSDNAKYSLYLQMNSLRAEDTAVYYCARDSYADDAALFDIWGQGTTVTVSSGGCGGGEVAALEKEVAALEKEVAALEKEVAALEK
notes: ROR1×CD3 two chain diabody; VL: parental; VH(4): N76Y
With B3, binding was put at a Kd of 3.7 nM.

B4: DART-16 (bispecific antibody)
chain 1: QLVLTQSPSASASLGSSVKLTCTLSSGHKTDTIDWYQQQPGKAPRYLMKLEGSGSYNKGSGVPDRFGSGSSSGADRYLTISSLQSEDEADYYCGTDYPGNYLFGGGTQLTVLGGGGSGGGGEVQLVESGGGLVQPGGSLRLSCAASGFTFSTYAMNWVRQAPGKGLEWVGRIRSKYNNYATYYADSVKGRFTISRDDSKNSLYLQMNSLKTEDTAVYYCVRHGNFGNSYVSWFAYWGQGTLVTVSSGGCGGGKVAALKEKVAALKEKVAALKEKVAALKE
chain 2: QAVVTQEPSLTVSPGGTVTLTCRSSTGAVTTSNYANWVQQKPGQAPRGLIGGTNKRAPWTPARFSGSLLGGKAALTITGAQAEDEADYYCALWYSNLWVFGGGTKLTVLGGGGSGGGGQEQLVESGGGLVQPGGSLRLSCAASGFTFSDYYMSWVRQAPGKGLEWVATIYPSSGKTYYADSVKGRFTISSDNAKNSLYLQMNSLRAEDTAVYYCTRDSYADDAALFDIWGQGTTVTVSSGGCGGGEVAALEKEVAALEKEVAALEKEVAALEK
notes: ROR1×CD3 two chain diabody; VL: parental; VH(3): A93T
In the case of B4, the affinity, expressed as Kd, was 4.3 nM.

B5: DART-12 (bispecific antibody)
chain 1: QLVLTQSPSASASLGSSVKLTCTLSSGHKTDTIDWYQQQPGKAPRYLMKLEGSGSYNKGSGVPDRFGSGISSGADWYLTISSLQSEDEADYYCGTDYPGNYLFGGGTQLTVLGGGGSGGGGEVQLVESGGGLVQPGGSLRLSCAASGFTFSTYAMNWVRQAPGKGLEWVGRIRSKYNNYATYYADSVKGRFTISRDDSKNSLYLQMNSLKTEDTAVYYCVRHGNFGNSYVSWFAYWGQGTLVTVSSGGCGGGKVAALKEKVAALKEKVAALKEKVAALKE
chain 2: QAVVTQEPSLTVSPGGTVTLTCRSSTGAVTTSNYANWVQQKPGQAPRGLIGGTNKRAPWTPARFSGSLLGGKAALTITGAQAEDEADYYCALWYSNLWVFGGGTKLTVLGGGGSGGGGQEQLVESGGGLVQPGGSLRLSCAASGFTFSDYYMSWVRQAPGKGLEWVATIYPSSGKTYYADSVKGRFTISSDNAKNSLYLQMNSLRAEDTAVYYCARDSYADDAALFDIWGQGTTVTVSSGGCGGGEVAALEKEVAALEKEVAALEKEVAALEK
notes: ROR1×CD3 two chain diabody; VL(12): S66I/R71W; VH: parental
As for B5, the Kd amounted to 1.7 nM.

B6: DART-20 (bispecific antibody)
chain 1: QLVLTQSPSASASLGSSVKLTCTLSSGHKTDTIDWYQQQPGKAPRYLMKLEGSGSYNKGSGVPDRFGSGSSSGADWYLTISSLQSEDEADYYCGTDYPGNYLFGGGTQLTVLGGGGSGGGGEVQLVESGGGLVQPGGSLRLSCAASGFTFSTYAMNWVRQAPGKGLEWVGRIRSKYNNYATYYADSVKGRFTISRDDSKNSLYLQMNSLKTEDTAVYYCVRHGNFGNSYVSWFAYWGQGTLVTVSSGGCGGGKVAALKEKVAALKEKVAALKEKVAALKE
chain 2: QAVVTQEPSLTVSPGGTVTLTCRSSTGAVTTSNYANWVQQKPGQAPRGLIGGTNKRAPWTPARFSGSLLGGKAALTITGAQAEDEADYYCALWYSNLWVFGGGTKLTVLGGGGSGGGGQEQLVESGGGLVQPGGSLRLSCAASGFTFSDYYMSWVRQAPGKGLEWVATIYPSSGKTYYADSVKGRFTISSDNAKNSLYLQMNSLRAEDTAVYYCTRDSYADDAALFDIWGQGTTVTVSSGGCGGGEVAALEKEVAALEKEVAALEKEVAALEK
notes: ROR1×CD3 two chain diabody; VL(2): R71W; VH(3): A93T
In turn, B6 came in with an equilibrium dissociation constant (Kd) of 1.3 nM.

B7: DART-14 (bispecific antibody)
chain 1: QLVLTQSPSASASLGSSVKLTCTLSSGHKTDTIDWYQQQPGKAPRYLMKLEGSGSYNKGSGVPDRFGSGSSSGADRYLTISSLQSEDEADYYCGTDYPGNYLFGGGTQLTVLGGGGSGGGGEVQLVESGGGLVQPGGSLRLSCAASGFTFSTYAMNWVRQAPGKGLEWVGRIRSKYNNYATYYADSVKGRFTISRDDSKNSLYLQMNSLKTEDTAVYYCVRHGNFGNSYVSWFAYWGQGTLVTVSSGGCGGGKVAALKEKVAALKEKVAALKEKVAALKE
chain 2: QAVVTQEPSLTVSPGGTVTLTCRSSTGAVTTSNYANWVQQKPGQAPRGLIGGTNKRAPWTPARFSGSLLGGKAALTITGAQAEDEADYYCALWYSNLWVFGGGTKLTVLGGGGSGGGGQEQLVESGGGLVQPGGSLRLSCAASGFTFSDYYMSWVRQAPGKGLEWVATIYPSSGKTYYADSVKGRLTISSDNAKNSLYLQMNSLRAEDTAVYYCARDSYADDAALFDIWGQGTTVTVSSGGCGGGEVAALEKEVAALEKEVAALEKEVAALEK
notes: ROR1×CD3 two chain diabody; VL: parental; VH(1): F67L
B7 came in with a Kd of 4.5 nM.

B8: DART-13 (bispecific antibody)
chain 1: QLVLTQSPSASASLGSSVKLTCTLSSGHKTDTIDWYQQQPGKAPRYLMKLEGSGSYNKGSGVPDRFGSGISSGADWYLTISSLQSEDEADYYCGTDNPGNYLFGGGTQLTVLGGGGSGGGGEVQLVESGGGLVQPGGSLRLSCAASGFTFSTYAMNWVRQAPGKGLEWVGRIRSKYNNYATYYADSVKGRFTISRDDSKNSLYLQMNSLKTEDTAVYYCVRHGNFGNSYVSWFAYWGQGTLVTVSSGGCGGGKVAALKEKVAALKEKVAALKEKVAALKE
chain 2: QAVVTQEPSLTVSPGGTVTLTCRSSTGAVTTSNYANWVQQKPGQAPRGLIGGTNKRAPWTPARFSGSLLGGKAALTITGAQAEDEADYYCALWYSNLWVFGGGTKLTVLGGGGSGGGGQEQLVESGGGLVQPGGSLRLSCAASGFTFSDYYMSWVRQAPGKGLEWVATIYPSSGKTYYADSVKGRFTISSDNAKNSLYLQMNSLRAEDTAVYYCARDSYADDAALFDIWGQGTTVTVSSGGCGGGEVAALEKEVAALEKEVAALEKEVAALEK
notes: ROR1×CD3 two chain diabody; VL(13): S66I/R71W/Y92N; VH: parental
As to B8, the affinity, expressed as Kd, was 1.4 nM. This Kd is about 3.2-fold lower than that of the molecule before.

B9: DART-21 (bispecific antibody)
chain 1: QLVLTQSPSASASLGSSVKLTCTLSSGHKTDTIDWYQQQPGKAPRYLMKLEGSGSYNKGSGVPDRFGSGISSGADRYLTISSLQSEDEADYYCGTDYPGNYLFGGGTQLTVLGGGGSGGGGEVQLVESGGGLVQPGGSLRLSCAASGFTFSTYAMNWVRQAPGKGLEWVGRIRSKYNNYATYYADSVKGRFTISRDDSKNSLYLQMNSLKTEDTAVYYCVRHGNFGNSYVSWFAYWGQGTLVTVSSGGCGGGKVAALKEKVAALKEKVAALKEKVAALKE
chain 2: QAVVTQEPSLTVSPGGTVTLTCRSSTGAVTTSNYANWVQQKPGQAPRGLIGGTNKRAPWTPARFSGSLLGGKAALTITGAQAEDEADYYCALWYSNLWVFGGGTKLTVLGGGGSGGGGQEQLVESGGGLVQPGGSLRLSCAASGFTFSDYYMSWVRQAPGKGLEWVATIYPSSGKTYYADSVKGRFTISSDNAKNSLYLQMNSLRAEDTAVYYCTRDSYADDAALFDIWGQGTTVTVSSGGCGGGEVAALEKEVAALEKEVAALEKEVAALEK
notes: ROR1×CD3 two chain diabody; VL(6): S66I; VH(3): A93T
B9 gave a dissociation constant Kd of 4.8 nM.

B10: DART-10 (bispecific antibody)
chain 1: QLVLTQSPSASASLGSSVKLTCTLSSGHKTDTIDWYQQQPGKAPRYLMKLEGSGSYNKGSGVPDRFGSGSSSGADRYLTISSLQSEDEADYYCGTDNPGNYLFGGGTQLTVLGGGGSGGGGEVQLVESGGGLVQPGGSLRLSCAASGFTFSTYAMNWVRQAPGKGLEWVGRIRSKYNNYATYYADSVKGRFTISRDDSKNSLYLQMNSLKTEDTAVYYCVRHGNFGNSYVSWFAYWGQGTLVTVSSGGCGGGKVAALKEKVAALKEKVAALKEKVAALKE
chain 2: QAVVTQEPSLTVSPGGTVTLTCRSSTGAVTTSNYANWVQQKPGQAPRGLIGGTNKRAPWTPARFSGSLLGGKAALTITGAQAEDEADYYCALWYSNLWVFGGGTKLTVLGGGGSGGGGQEQLVESGGGLVQPGGSLRLSCAASGFTFSDYYMSWVRQAPGKGLEWVATIYPSSGKTYYADSVKGRFTISSDNAKNSLYLQMNSLRAEDTAVYYCARDSYADDAALFDIWGQGTTVTVSSGGCGGGEVAALEKEVAALEKEVAALEKEVAALEK
notes: ROR1×CD3 two chain diabody; VL(10): Y92N; VH: parental
Molecule B10 had a Kd of 2.7 nM.
